From PMC5683673 come the findings set out here.

This assay addresses purified recombinant human dimeric DPP-4 protein (dipeptidyl peptidase-4) (human), P27487. As to the kind of experiment: SEC. To be noted: remark: other sources report otherwise.

B1: purified recombinant human dimeric DPP-4 protein (dipeptidyl peptidase-4), P27487 29-766 (enzyme)
chain: NKGTDDATADSRKTYTLTDYLKNTYRLKLYSLRWISDHEYLYKQENNILVFNAEYGNSSVFLENSTFDEFGHSINDYSISPDGQFILLEYNYVKQWRHSYTASYDIYDLNKRQLITEERIPNNTQWVTWSPVGHKLAYVWNNDIYVKIEPNLPSYRITWTGKEDIIYNGITDWVYEEEVFSAYSALWWSPNGTFLAYAQFNDTEVPLIEYSFYSDESLQYPKTVRVPYPKAGAVNPTVKFFVVNTDSLSSVTNATSIQITAPASMLIGDHYLCDVTWATQERISLQWLRRIQNYSVMDICDYDESSGRWNCLVARQHIEMSTTGWVGRFRPSEPHFTLDGNSFYKIISNEEGYRHICYFQIDKKDCTFITKGTWEVIGIEALTSDYLYYISNEYKGMPGGRNLYKIQLSDYTKVTCLSCELNPERCQYYSVSFSKEAKYYQLRCSGPGLPLYTLHSSVNDKGLRVLEDNSALDKMLQNVQMPSKKLDFIILNETKFWYQMILPPHFDKSKKYPLLLDVYAGPCSQKADTVFRLNWATYLASTENIIVASFDGRGSGYQGDKIMHAINRRLGTFEVEDQIEAARQFSKMGFVDNKRIAIWGWSYGGYVTSMVLGSGSGVFKCGIAVAPVSRWEYYDSVYTERYMGLPTPEDNLDHYRNSTVMSRAENFKQVEYLLIHGTADDNVHFQQSAQISKALVDVGVDFQAMWYTDEDHGIASSTAHQHIYTHMSHFIKQCFSLP
For the molecule B1, the percent present as dimer was found to be 85%.
